Assay results from publication PMC6179184, “Interaction of the Warsaw breakage syndrome DNA helicase DDX11 with the replication fork-protection factor Timeless promotes sister chromatid cohesion” (PLoS Genetics, 2018).
Each block holds one binder with its values, some of them ahead of it.

Key:
[1] = target: T1, recombinant human Flag-Timeless (human, UniProt Q9UNS1 1-1208); assay: peptide or protein array; PEPperCHIP microarrays of 15-residue DDX11 peptides on glass slides (tiling array, 13-residue overlap; full substitution scan of peptide # 32); Flag-Timeless at 50 ug/mL in PBS, 0.05% Tween 20, 1% BSA for 16 hr; detected with Cy3-labelled anti-Flag antibody; control array without Flag-Timeless; conditions: both partners purified
T1 construct: Timeless, human, component of the replication fork-protection complex; also called Flag-tagged Timeless; source: insect cells infected with a recombinant baculovirus (Sf9), purified
T1 sequence (looked up): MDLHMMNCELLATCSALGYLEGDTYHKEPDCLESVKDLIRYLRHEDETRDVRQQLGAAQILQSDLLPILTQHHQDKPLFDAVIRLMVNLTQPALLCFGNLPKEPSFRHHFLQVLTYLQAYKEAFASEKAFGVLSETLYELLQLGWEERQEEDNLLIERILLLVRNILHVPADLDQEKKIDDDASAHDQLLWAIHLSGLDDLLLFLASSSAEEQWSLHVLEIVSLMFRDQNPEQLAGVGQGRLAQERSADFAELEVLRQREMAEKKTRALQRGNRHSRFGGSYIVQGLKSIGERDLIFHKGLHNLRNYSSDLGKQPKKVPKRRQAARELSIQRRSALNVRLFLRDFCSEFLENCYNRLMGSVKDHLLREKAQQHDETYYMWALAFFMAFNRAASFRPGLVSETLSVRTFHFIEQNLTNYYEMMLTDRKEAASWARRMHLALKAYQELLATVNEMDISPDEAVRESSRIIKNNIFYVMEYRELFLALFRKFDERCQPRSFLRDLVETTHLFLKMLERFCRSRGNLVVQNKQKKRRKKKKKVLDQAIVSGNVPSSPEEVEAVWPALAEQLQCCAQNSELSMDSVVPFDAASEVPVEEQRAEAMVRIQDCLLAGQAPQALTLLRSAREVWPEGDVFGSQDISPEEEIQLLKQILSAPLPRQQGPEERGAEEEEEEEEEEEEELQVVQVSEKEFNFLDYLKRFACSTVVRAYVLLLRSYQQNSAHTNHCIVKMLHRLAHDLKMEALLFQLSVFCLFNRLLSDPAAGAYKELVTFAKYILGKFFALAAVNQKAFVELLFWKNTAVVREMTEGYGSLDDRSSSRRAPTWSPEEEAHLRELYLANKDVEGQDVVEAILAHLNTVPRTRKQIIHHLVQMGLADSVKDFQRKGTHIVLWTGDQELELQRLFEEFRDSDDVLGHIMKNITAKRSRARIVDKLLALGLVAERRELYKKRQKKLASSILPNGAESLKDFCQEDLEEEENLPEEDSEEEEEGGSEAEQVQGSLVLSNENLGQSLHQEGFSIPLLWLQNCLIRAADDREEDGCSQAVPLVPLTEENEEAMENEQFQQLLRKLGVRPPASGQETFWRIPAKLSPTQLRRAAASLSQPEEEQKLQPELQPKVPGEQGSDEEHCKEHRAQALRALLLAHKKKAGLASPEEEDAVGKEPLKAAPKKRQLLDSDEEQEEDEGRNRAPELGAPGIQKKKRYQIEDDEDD

[2] = target: T1, recombinant human Flag-Timeless; assay: pull-down; mixtures of purified recombinant proteins (Timeless 0.8 ug or cohesin 1 ug, DDX11 0.5 ug, 200 uL) with anti-DDX11 antibody on Protein A beads; 25 mM Tris-HCl pH 7.5, 150 mM NaCl, 2 mM MgCl2, 1 mM DTT, 5% glycerol, 2 hr at 4 C; washes with 300 mM NaCl, 0.25% Triton X-100; immuno-blot; conditions: both partners purified

- binding result [1]: binds
B1: DDX11 Peptide # 32 (peptide)
peptide: EQLESGEEELVLAEY
notes: 15-residue peptide of human DDX11 (906-residue protein), in Region T (65-225); its two C-terminal residues are Glu201 and Tyr202 of full-length DDX11; source: synthetic peptide, printed on a PEPperCHIP microarray (PEPperPRINT)

- binding result [2]: binds
B2: DDX11-3xFlag wild type (enzyme, human, UniProt Q96FC9-2 1-906, looked up)
chain: MANETQKVGAIHFPFPFTPYSIQEDFMAELYRVLEAGKIGIFESPTGTGKSLSLICGALSWLRDFEQKKREEEARLLETGTGPLHDEKDESLCLSSSCEGAAGTPRPAGEPAWVTQFVQKKEERDLVDRLKAEQARRKQREERLQQLQHRVQLKYAAKRLRQEEEERENLLRLSREMLETGPEAERLEQLESGEEELVLAEYESDEEKKVASRVDEDEDDLEEEHITKIYYCSRTHSQLAQFVHEVKKSPFGKDVRLVSLGSRQNLCVNEDVKSLGSVQLINDRCVDMQRSRHEKKKGAEEEKPKRRRQEKQAACPFYNHEQMGLLRDEALAEVKDMEQLLALGKEARACPYYGSRLAIPAAQLVVLPYQMLLHAATRQAAGIRLQDQVVIIDEAHNLIDTITGMHSVEVSGSQLCQAHSQLLQYVERYGKRLKAKNLMYLKQILYLLEKFVAVLGGNIKQNPNTQSLSQTGTELKTINDFLFQSQIDNINLFKVQRYCEKSMISRKLFGFTERYGAVFSSREQPKLAGFQQFLQSLQPRTTEALAAPADESQASTLRPASPLMHIQGFLAALTTANQDGRVILSRQGSLSQSTLKFLLLNPAVHFAQVVKECRAVVIAGGTMQPVSDFRQQLLACAGVEAERVVEFSCGHVIPPDNILPLVICSGISNQPLEFTFQKRELPQMMDEVGRILCNLCGVVPGGVVCFFPSYEYLRQVHAHWEKGGLLGRLAARKKIFQEPKSAHQVEQVLLAYSRCIQACGQERGQVTGALLLSVVGGKMSEGINFSDNLGRCVVMVGMPFPNIRSAELQEKMAYLDQTLPRAPGQAPPGKALVENLCMKAVNQSIGRAIRHQKDFASVVLLDQRYARPPVLAKLPAWIRARVEVKATFGPAIAAVQKFHREKSASS
notes: DDX11 (ChlR1), human, full-length protein of 906 residues (1-906); also called Flag-tagged wild type (WT) DDX11; ChlR1; source: HEK 293T, transiently transfected (pcDNA 3.0); purified, and in whole cell extract; not shown: 3xFlag, C-terminal, kept
